Legend:
ScuR/SarF system = test: cell-based or functional assay
[1] = target: ScuR-StrepTag (Streptococcus salivarius HSISS4); test: EMSA: Cy3 PsptA probe, constant ScuR-StrepTag, decreasing sBI7; peptide-dependent ternary complex

B1: sBI7 (peptide)
peptide: LPFWLILG
Binder B1 has a peptide concentration to which the PsptA, PslvX and PcomS luxAB reporters respond in WT background (ScuR/SarF system) of less than 1 nM and a lowest peptide concentration at which ScuR shifts the PsptA probe [1] of 0.08 nM.
